Columns and labels:
[1] = target: human MSLN protein endogenously expressed on tumor cells (Hela, OVCAR3) (human) (UniProt Q13421); experiment: FACS, OVCAR3 cells, antibody 0.0064 nM
[2] = target: human MSLN full-length protein, recombinant, on CHO-K1 or HEK293T cells (human) (UniProt Q13421); experiment: competitive FACS on CHO-K1-human MSLN-2C8 cells vs Biotin-Tab142; competitor at 100 nM
[3] = target: human MSLN-R3-3 polypeptide (purchased from GL Biochem, Cat. No. 406676) (human); experiment: ELISA, antibody 1 nM
[4] = target: human MSLN-R3-rFc protein (human) (UniProt Q13421); experiment: ELISA, antibody 1 nM
[5] = target: human MSLN full-length protein on transfected cells (CHO-K1-hMSLN clones 2C8, 2D11, 2C5; HEK293T-hMSLN clones B8, 2A4, 2A7) (human) (UniProt Q13421); experiment: FACS, CHO-K1-hMSLN-2C8 cells, antibody 0.00128 nM
[6] = target: human MSLN protein endogenously expressed on tumor cells (Hela, OVCAR3) (human) (UniProt Q13421); experiment: FACS, OVCAR3 cells
[7] = target: monkey MSLN full-length protein on HEK293T cells (monkey); experiment: FACS, HEK293T-monkey-MSLN cells, antibody 0.16 nM
[8] = target: human MSLN full-length protein, recombinant, on CHO-K1 or HEK293T cells (human) (UniProt Q13421); experiment: competitive FACS on CHO-K1-human MSLN-2C8 cells vs Biotin-Tab131; competitor at 1.6 nM
[9] = target: human MSLN protein endogenously expressed on tumor cells (Hela, OVCAR3) (human) (UniProt Q13421); experiment: FACS, OVCAR3 cells, antibody 0.8 nM
[10] = target: human MSLN full-length protein, recombinant, on CHO-K1 or HEK293T cells (human) (UniProt Q13421); experiment: competitive FACS on CHO-K1-human MSLN-2C8 cells vs Biotin-Tab142; competitor at 0.0064 nM
[11] = target: human MSLN full-length protein, recombinant, on CHO-K1 or HEK293T cells (human) (UniProt Q13421); experiment: competitive FACS on CHO-K1-human MSLN-2C8 cells vs Biotin-Tab131; competitor at 8 nM
[12] = target: human MSLN full-length protein, recombinant, on CHO-K1 or HEK293T cells (human) (UniProt Q13421); experiment: competitive FACS on CHO-K1-human MSLN-2C8 cells vs Biotin-Tab131; competitor at 0.32 nM
[13] = target: human MSLN full-length protein, recombinant, on CHO-K1 or HEK293T cells (human) (UniProt Q13421); experiment: competitive FACS on CHO-K1-human MSLN-2C8 cells vs Biotin-Tab142; competitor at 40 nM
[14] = target: human MSLN protein endogenously expressed on tumor cells (Hela, OVCAR3) (human) (UniProt Q13421); experiment: FACS, OVCAR3 cells, antibody 0.2 nM
[15] = target: human MSLN-R3-rFc protein (human) (UniProt Q13421); experiment: ELISA, antibody 4 nM
[16] = target: human MSLN full-length protein, recombinant, on CHO-K1 or HEK293T cells (human) (UniProt Q13421); experiment: competitive FACS on CHO-K1-human MSLN-2C8 cells vs Biotin-Tab131; competitor at 200 nM
[17] = target: monkey MSLN full-length protein on HEK293T cells (monkey); experiment: FACS, HEK293T-monkey-MSLN cells, antibody 0.0064 nM
[18] = target: monkey MSLN full-length protein on HEK293T cells (monkey); experiment: FACS, HEK293T-monkey-MSLN cells, antibody 0.00128 nM
[19] = target: monkey MSLN full-length protein on HEK293T cells (monkey); experiment: FACS, HEK293T-monkey-MSLN cells, antibody 0.8 nM
[20] = target: human MSLN full-length protein, recombinant, on CHO-K1 or HEK293T cells (human) (UniProt Q13421); experiment: competitive FACS on CHO-K1-human MSLN-2C8 cells vs Biotin-Tab142; competitor at 0.0128 nM
[21] = target: human MSLN full-length protein, recombinant, on CHO-K1 or HEK293T cells (human) (UniProt Q13421); experiment: competitive FACS on CHO-K1-human MSLN-2C8 cells vs Biotin-Tab142; competitor at 20 nM
[22] = target: human MSLN full-length protein on transfected cells (CHO-K1-hMSLN clones 2C8, 2D11, 2C5; HEK293T-hMSLN clones B8, 2A4, 2A7) (human) (UniProt Q13421); experiment: FACS, CHO-K1-hMSLN-2C8 cells, antibody 20 nM
[23] = target: human MSLN full-length protein, recombinant, on CHO-K1 or HEK293T cells (human) (UniProt Q13421); experiment: competitive FACS on CHO-K1-human MSLN-2C8 cells vs Biotin-Tab142; competitor at 0.032 nM
[24] = target: monkey MSLN full-length protein on HEK293T cells (monkey); experiment: FACS, HEK293T-monkey-MSLN cells, antibody 0.032 nM
[25] = target: human MSLN protein endogenously expressed on tumor cells (Hela, OVCAR3) (human) (UniProt Q13421); experiment: FACS, OVCAR3 cells, antibody 100 nM
[26] = target: human MSLN full-length protein, recombinant, on CHO-K1 or HEK293T cells (human) (UniProt Q13421); experiment: competitive FACS on CHO-K1-human MSLN-2C8 cells vs Biotin-Tab142; competitor at 8 nM
[27] = target: human MSLN full-length protein on transfected cells (CHO-K1-hMSLN clones 2C8, 2D11, 2C5; HEK293T-hMSLN clones B8, 2A4, 2A7) (human) (UniProt Q13421); experiment: FACS, CHO-K1-hMSLN-2C8 cells, antibody 4 nM
[28] = target: human MSLN full-length protein, recombinant, on CHO-K1 or HEK293T cells (human) (UniProt Q13421); experiment: competitive FACS on CHO-K1-human MSLN-2C8 cells vs Biotin-Tab142; competitor at 0.8 nM

Sequence of human MSLN protein endogenously expressed on tumor cells (Hela, OVCAR3) (human) (Q13421 other isoform, or with tags, fused parts or gaps): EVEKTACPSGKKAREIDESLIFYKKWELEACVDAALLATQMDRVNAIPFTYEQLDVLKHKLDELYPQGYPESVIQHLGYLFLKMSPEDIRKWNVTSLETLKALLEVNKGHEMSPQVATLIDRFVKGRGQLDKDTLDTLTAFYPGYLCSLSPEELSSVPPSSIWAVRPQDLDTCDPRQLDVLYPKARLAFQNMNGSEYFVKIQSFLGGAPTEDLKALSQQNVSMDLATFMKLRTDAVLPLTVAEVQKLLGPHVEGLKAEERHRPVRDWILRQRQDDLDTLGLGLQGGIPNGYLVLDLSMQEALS
Sequence of human MSLN full-length protein, recombinant, on CHO-K1 or HEK293T cells (human) (Q13421 other isoform, or with tags, fused parts or gaps limits assumed): as the sequence (Q13421 other isoform, or with tags, fused parts or gaps) above, with R14P counted along it
Sequence of human MSLN full-length protein on transfected cells (CHO-K1-hMSLN clones 2C8, 2D11, 2C5; HEK293T-hMSLN clones B8, 2A4, 2A7) (human) (Q13421 other isoform, or with tags, fused parts or gaps limits assumed): as the sequence (Q13421 other isoform, or with tags, fused parts or gaps) above, with R14P counted along it
Sequence of human MSLN-R3-3 polypeptide (purchased from GL Biochem, Cat. No. 406676) (human) (peptide, as listed by the source): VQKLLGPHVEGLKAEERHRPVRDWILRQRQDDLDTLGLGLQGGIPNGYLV

hIgG1 (antibody)
FACS signal (MFI) [1]: 74
MFI of Biotin-Tab142 [2]: 41200
OD450 nm [3]: 0.06
OD450 nm [4]: 0.09
FACS signal (MFI) [5]: 116
Max MFI [6]: 147
FACS signal (MFI) [7]: 85
MFI of Biotin-Tab131 [8]: 12600
FACS signal (MFI) [9]: 76
MFI of Biotin-Tab142 [10]: 43700
MFI of Biotin-Tab131 [11]: 13000
MFI of Biotin-Tab131 [12]: 12700
MFI of Biotin-Tab142 [13]: 23600
MFI [14]: 106
OD450 nm [15]: 0.15
MFI of Biotin-Tab131 [16]: 12900
FACS signal (MFI) [17]: 85
FACS signal (MFI) [18]: 84
FACS signal (MFI) [19]: 87
MFI of Biotin-Tab142 [20]: 24100
MFI of Biotin-Tab142 [21]: 42600
FACS signal (MFI) [22]: 156
MFI of Biotin-Tab142 [23]: 43700
FACS signal (MFI) [24]: 125
FACS signal (MFI) [25]: 93
MFI of Biotin-Tab142 [26]: 23000
FACS signal (MFI) [27]: 110
MFI of Biotin-Tab142 [28]: 44300

Source: patent US20240124563A1
